US20250179155A1 (VANDERBILT UNIVERSITY, published 2025)

Legend:
TcdA-GTD (TcdA1-542) = biological target: T1, TcdA-GTD (TcdA1-542) (Clostridioides difficile strain VPI10463, UniProt P16154 1-542); test: ELISA-like screen of clone lysates on isolated domains
T1 construct: range 1-542; also called TcdA glucosyltransferase domain

[1] = biological target: T2, full-length TcdA (TcdA1-2710) (Clostridioides difficile strain VPI10463, UniProt P16154 1-2710); test: cell-based or functional assay
[2] = biological target: T3, TcdB-CROPs (TcdB1827-2366) (Clostridioides difficile strain VPI10463, UniProt P18177 1827-2366); test: ELISA on isolated toxin domains (domain specificity)
T3 construct: range 1827-2366; also called TcdB CROPS domain; TcdBX-Y

[3] = biological target: full-length TcdB (TcdB1-2366), VPI10463 (Clostridioides difficile strain VPI10463, UniProt P18177 1-2366); test: cell-based or functional assay
[4] = biological target: T2, full-length TcdA (TcdA1-2710); test: sandwich ELISA on filtered culture supernatant (VPI10463), FIG. 3J
TcdA1-1832 = biological target: T4, TcdA1-1832 (Clostridioides difficile strain VPI10463, UniProt P16154 1-1832); test: negative stain EM with single particle averaging
T4 construct: range 1-1832; also called TcdA1-1832 (no CROPs domain)

TcdA1-1809 = biological target: T5, TcdA1-1809 (Clostridioides difficile strain VPI10463, UniProt P16154 1-1809); test: ELISA on isolated toxin domains (domain specificity)
T5 construct: range 1-1809

[5] = biological target: T2, full-length TcdA (TcdA1-2710); test: sandwich ELISA, capture A2B10, biotinylated detection A1A6

T2 sequence (P16154 whole entry, the tested form may be a part): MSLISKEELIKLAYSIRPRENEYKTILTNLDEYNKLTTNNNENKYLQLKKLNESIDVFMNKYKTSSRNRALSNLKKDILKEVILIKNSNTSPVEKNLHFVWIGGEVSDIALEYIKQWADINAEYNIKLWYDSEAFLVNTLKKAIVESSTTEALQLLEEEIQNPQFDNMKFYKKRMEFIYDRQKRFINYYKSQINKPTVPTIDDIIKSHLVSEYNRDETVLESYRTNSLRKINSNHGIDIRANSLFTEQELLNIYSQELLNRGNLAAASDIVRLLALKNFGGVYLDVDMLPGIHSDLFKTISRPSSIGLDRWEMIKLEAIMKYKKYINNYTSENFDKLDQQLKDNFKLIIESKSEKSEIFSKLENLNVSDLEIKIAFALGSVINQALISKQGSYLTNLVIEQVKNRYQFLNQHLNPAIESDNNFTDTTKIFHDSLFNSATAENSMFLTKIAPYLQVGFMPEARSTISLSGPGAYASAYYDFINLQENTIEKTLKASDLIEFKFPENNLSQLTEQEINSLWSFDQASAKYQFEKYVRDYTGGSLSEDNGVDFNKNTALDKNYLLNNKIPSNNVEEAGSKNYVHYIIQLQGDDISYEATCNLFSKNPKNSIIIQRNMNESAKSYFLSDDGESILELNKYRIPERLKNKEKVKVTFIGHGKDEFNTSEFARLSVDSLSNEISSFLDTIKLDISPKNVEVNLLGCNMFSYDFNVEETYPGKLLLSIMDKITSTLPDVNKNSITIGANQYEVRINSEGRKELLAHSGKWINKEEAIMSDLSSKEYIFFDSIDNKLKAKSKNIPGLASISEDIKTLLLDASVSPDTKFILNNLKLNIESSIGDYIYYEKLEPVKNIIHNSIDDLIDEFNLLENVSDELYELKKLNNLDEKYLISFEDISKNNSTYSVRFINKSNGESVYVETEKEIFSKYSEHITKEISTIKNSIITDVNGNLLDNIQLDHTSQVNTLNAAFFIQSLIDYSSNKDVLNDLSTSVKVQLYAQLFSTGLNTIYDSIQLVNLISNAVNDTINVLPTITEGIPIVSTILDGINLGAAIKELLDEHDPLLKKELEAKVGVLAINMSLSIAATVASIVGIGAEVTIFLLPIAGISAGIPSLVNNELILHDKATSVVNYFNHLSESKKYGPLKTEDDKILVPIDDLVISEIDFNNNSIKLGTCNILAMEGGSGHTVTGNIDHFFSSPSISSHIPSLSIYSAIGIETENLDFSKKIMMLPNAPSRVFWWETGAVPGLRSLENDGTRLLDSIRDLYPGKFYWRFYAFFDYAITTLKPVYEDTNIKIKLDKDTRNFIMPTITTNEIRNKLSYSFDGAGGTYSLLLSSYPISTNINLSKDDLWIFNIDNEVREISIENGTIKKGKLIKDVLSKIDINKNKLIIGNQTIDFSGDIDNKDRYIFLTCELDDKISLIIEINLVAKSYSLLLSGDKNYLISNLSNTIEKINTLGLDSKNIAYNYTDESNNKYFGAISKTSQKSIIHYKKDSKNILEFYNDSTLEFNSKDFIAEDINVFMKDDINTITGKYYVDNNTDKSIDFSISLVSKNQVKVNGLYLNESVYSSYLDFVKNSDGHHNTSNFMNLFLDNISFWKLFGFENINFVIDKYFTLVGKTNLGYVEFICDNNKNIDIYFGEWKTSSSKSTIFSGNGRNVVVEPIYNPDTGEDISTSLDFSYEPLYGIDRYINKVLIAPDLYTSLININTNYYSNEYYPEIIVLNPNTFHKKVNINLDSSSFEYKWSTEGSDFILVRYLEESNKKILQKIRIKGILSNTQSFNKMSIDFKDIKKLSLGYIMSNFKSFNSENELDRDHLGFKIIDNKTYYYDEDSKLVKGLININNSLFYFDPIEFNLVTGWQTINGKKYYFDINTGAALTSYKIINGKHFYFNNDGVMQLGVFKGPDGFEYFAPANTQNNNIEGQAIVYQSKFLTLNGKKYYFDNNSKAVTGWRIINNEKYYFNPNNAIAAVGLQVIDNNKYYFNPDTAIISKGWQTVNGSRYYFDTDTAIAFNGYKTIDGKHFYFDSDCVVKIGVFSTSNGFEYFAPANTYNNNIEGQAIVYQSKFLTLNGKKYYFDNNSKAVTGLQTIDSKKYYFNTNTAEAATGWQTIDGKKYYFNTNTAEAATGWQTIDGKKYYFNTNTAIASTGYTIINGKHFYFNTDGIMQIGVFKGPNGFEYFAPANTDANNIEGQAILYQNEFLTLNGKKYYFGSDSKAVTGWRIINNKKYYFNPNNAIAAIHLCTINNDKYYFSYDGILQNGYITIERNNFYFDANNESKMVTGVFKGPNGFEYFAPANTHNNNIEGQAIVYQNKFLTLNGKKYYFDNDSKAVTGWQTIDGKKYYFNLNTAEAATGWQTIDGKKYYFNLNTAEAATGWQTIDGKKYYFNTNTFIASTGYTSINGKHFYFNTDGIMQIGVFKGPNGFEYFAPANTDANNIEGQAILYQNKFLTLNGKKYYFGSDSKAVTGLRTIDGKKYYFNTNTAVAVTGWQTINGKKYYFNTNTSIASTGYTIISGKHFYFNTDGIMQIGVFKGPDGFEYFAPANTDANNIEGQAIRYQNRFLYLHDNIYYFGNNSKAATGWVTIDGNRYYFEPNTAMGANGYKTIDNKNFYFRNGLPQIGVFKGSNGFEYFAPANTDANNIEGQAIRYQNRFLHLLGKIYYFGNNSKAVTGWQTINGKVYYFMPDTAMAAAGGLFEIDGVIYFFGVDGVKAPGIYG
T1 sequence (P16154 1-542 limits assumed): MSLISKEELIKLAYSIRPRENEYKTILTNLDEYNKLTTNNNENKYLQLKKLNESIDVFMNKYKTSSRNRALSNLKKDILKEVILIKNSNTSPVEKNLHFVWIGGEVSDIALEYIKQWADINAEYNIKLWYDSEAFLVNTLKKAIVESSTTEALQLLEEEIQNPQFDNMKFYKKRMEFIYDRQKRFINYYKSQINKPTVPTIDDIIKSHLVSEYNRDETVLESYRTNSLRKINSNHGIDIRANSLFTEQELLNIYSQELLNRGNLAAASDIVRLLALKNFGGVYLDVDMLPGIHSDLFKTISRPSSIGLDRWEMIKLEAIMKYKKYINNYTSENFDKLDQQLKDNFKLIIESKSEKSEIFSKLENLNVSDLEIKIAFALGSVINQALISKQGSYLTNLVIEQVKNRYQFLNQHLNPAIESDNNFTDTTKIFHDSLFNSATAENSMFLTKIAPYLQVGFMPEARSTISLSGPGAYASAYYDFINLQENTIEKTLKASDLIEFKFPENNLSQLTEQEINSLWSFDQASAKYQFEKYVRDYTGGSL
T3 sequence (P18177 1827-2366 limits assumed): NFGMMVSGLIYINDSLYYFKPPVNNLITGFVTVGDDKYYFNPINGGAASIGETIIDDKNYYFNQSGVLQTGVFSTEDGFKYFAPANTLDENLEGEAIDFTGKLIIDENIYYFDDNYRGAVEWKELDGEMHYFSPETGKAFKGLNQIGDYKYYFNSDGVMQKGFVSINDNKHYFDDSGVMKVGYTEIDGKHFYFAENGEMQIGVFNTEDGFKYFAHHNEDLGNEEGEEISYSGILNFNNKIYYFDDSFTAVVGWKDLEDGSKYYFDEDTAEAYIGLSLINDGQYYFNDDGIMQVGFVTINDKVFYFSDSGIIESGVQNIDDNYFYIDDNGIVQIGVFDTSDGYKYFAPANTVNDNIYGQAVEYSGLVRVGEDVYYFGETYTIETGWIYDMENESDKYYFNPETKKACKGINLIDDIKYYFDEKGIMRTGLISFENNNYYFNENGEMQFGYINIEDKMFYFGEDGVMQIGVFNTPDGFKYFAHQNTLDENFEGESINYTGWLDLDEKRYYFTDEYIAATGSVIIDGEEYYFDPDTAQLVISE

B1: A1F4 (VHH)
VHH: QVQLQESGGGLVQAGGSLRLSCTASGRTFTTYNWAWFCQAPGKEREFVAAITGLTRHTYYADSVKGRFTISRDNAKNTVYLQMNSLKPEDTAVYFCAVSSGGDLNERVNYEYWGQGTQVTVSS
binding result (TcdA-GTD (TcdA1-542)): no binding | EC50, TcdA neutralization, T84 cells [1]: > 10000 nM

B2: B2F11 (VHH)
VHH: QVQLQESGGGLVQAGGSLTLSCTASGFTFSNYVMSWYRQAPGKEREWVASVSESGQSRTYADSVKGRFTISRDNTNFSVYLQMNNLNSEDTAVYYCNTGSRTYGARYWGQGTQVTVSS
binding result [2]: binds | EC50 (nM), TcdB neutralization, Vero cells [3]: 15.6 nM

B3: B1A11 (VHH)
VHH: QVQLQESGGGVVQPGGSLRLTCTSSRSINIYVAMGWYRQAPGKQRERVATAHKDGGTRYSDSVKGRFTISRDDDKNTVYLQMNNLEPGDTAVYYCNAFGSSAWGQGTQVTVSS
binding result [2]: binds | EC50 (nM), TcdB neutralization, Vero cells [3]: 38.4 nM

B4: A2G6 (VHH)
VHH: QVQLQESGGGLVQAGGSLRLSCAASGRTFSRIAMGWFRQVPGKEREFVAGISGNGGTFYTDSVKGRFTISRDNTKNTVYLQMNSLRPEDTAVYYCAADPNYRATYFPYGMDYYGRGTQVTVSS
binding result (TcdA-GTD (TcdA1-542)): no binding | EC50 (nM), TcdA neutralization, T84 cells [1]: 9.2 nM | EC50 (nM), TcdA neutralization, Vero cells [1]: < 1 nM

B5: A1C3 (VHH)
VHH: QVQLQESGGGLVQPGGSLRLSCAASGRIFSIKSMGWYRQAPGKQRELVADITSGGSTNYADSVKGRFTISRDSAWNTVYLQMNSLKPEDTAVYYCRRVVVTPYPDEYEYDYWGQGTQVTVSS
notes: also called Nb A1C3
binding result [4]: binds | binding result (TcdA1-1832): binds | binding result (TcdA1-1809): binds | binding result (TcdA-GTD (TcdA1-542)): no binding

B6: A1A6 (VHH)
VHH: QVQLQESGGGSVQAGGSLRLSCAASGFIDDDYAIGWFRQAPGKEREGISCISSSNGKIHYADSVKGRFTISEDIAKKTVYLQMNFLKPEDTAVYYCAAETRGWSYCSGYGWSRYKYWGQGTQVTVSS
notes: also called Nb A1A6; A1A6-Avi
binding result [5]: binds
